Measurements reported in patent US20190352359A1 (IMMATICS BIOTECHNOLOGIES, published 2019).

Target: T1, HLA-A*24
T1 construct: Monomers captured on streptavidin plates; also called peptide-receptive MHC molecules; MHC complexes
Assay: UV peptide-exchange ELISA (anti-b2m); yield grade ++++ = >75%
From the text: Candidate peptides for T cell based therapies according to the present invention were further tested for their MHC binding capacity (affinity). The individual peptide-MHC complexes were produced by UV-ligand exchange, where a UV-sensitive peptide is cleaved upon UV-irradiation, and exchanged with the peptide of interest as analyzed. Only peptide candidates that can effectively bind and stabilize the peptide-receptive MHC molecules prevent dissociation of the MHC complexes. To determine the yield of the exchange reaction, an ELISA was performed based on the detection of the light chain (p2m) of stabilized MHC complexes. The assay was performed as generally described in Rodenko et al. (Rodenko et al., 2006)
96 well MAXISorp plates (NUNC) were coated over night with 2 ug/ml streptavidin in PBS at room temperature, washed 4× and blocked for 1 h at 37° C. in 2% BSA containing blocking buffer. Refolded HLA-A*02:01/MLA-001 monomers served as standards, covering the range of 15-500 ng/ml. Peptide-MHC monomers of the UV-exchange reaction were diluted 100-fold in blocking buffer. Samples were incubated for 1 h at 37° C., washed four times, incubated with 2 ug/ml HRP conjugated anti-β2m for 1h at 37° C., washed again and detected with TMB solution that is stopped with […]. Absorption was measured at 450 nm. Candidate peptides that show a high exchange yield (preferably higher than 50%, most preferred higher than 75%) are generally preferred for a generation and production of antibodies or fragments thereof, and/or T cell receptors or fragments thereof, as they show sufficient avidity to the MHC molecules and prevent dissociation of the MHC complexes.

| Binder | peptide exchange yield [%] |
| --- | --- |
| LYICKVELM (also called LYICKVELM) [CTL-001] | > 75 |
| YFLPGPHYF (also called YFLPGPHYF) [SOX30-001] | > 75 |
| VYSDRQIYLL (also called VYSDRQIYLL) [ABCC11-006] | > 75 |
| IFIPATILL (also called IFIPATILL) [ACSM1-001] | > 75 |
| LYTVPFNLI (also called LYTVPFNLI) [SLC45A2-006] | > 75 |
| DYLLSWLLF (also called DYLLSWLLF) [CNR2-003] | > 75 |
| IYNKTKMAF (also called IYNKTKMAF) [SLCO6-001] | > 75 |
| VYISDVSVY (also called VYISDVSVY) [CLECL-003] | > 75 |
| YYIATMALI (also called YYIATMALI) [CHRNA9-004] | > 75 |
| FFYVTETTF (also called FFYVTETTF) [TERT-003] | > 75 |
| MYDLHHLYL (also called MYDLHHLYL) [EPY-001] | > 75 |
| VFPSVDVSF (also called VFPSVDVSF) [PTP-043] | > 75 |
| AYAPRGSIYKF (also called AYAPRGSIYKF) [HHIPL2-001] | > 75 |
| CYSFIHLSF (also called CYSFIHLSF) [NLR-006] | > 75 |
| IFLPFFIVF (also called IFLPFFIVF) [ADAM18-001] | > 75 |
| TYSTNRTMI (also called TYSTNRTMI) [FLT3-013] | > 75 |
| VLPLHFLPF (also called VLPLHFLPF) [HBG2-001] | > 75 |
| IYVSLAHVL (also called IYVSLAHVL) [ANO7-002] | > 75 |
| TQAGEYLLF (also called TQAGEYLLF) [FLT3-012] | > 75 |
| IYPEAIATL (also called IYPEAIATL) [SLC6A3-002] | > 75 |
| QKYYITGEAEGF (also called QKYYITGEAEGF) [ESR1-009] | > 75 |
| TYFFVDNQYW (also called TYFFVDNQYW) [MMP12-020] | > 75 |
| AYVTEFVSL (also called AYVTEFVSL) [SCN3A-001] | > 75 |

| Binder | peptide exchange yield [%] |
| --- | --- |
| PYWWNANMVF (also called PYWWNANMVF) [NOTU-001] | > 75 |
| RYLSVCERL (also called RYLSVCERL) [NKX-001] | > 75 |
| KYVDINTFRL (also called KYVDINTFRL) [MMP12-018] | > 75 |
| PEYSLPVLTF (also called PEYSLPVLTF) [PTP-040] | > 75 |
| FWFDSREISF (also called FWFDSREISF) [OR51E2-002] | > 75 |
| TYATHVTEI (also called TYATHVTEI) [CCR8-004] | > 75 |
| AYPQIRCTW (also called AYPQIRCTW) [FLT3-009] | > 75 |
| VYAFMNENF (also called VYAFMNENF) [QRFPR-004] | > 75 |
| AWSPPATLF (also called AWSPPATLF) [LOXL4-002] | > 75 |
| IFPKTGLLII (also called IFPKTGLLII) [MAGEA4-008] | > 75 |
| KIYTTVLFANI (also called KIYTTVLFANI) [NPFFR2-003] | > 75 |
| ALMSAFYTF (also called ALMSAFYTF) [MMP11-020] | > 75 |
| IYKFIMDRF (also called IYKFIMDRF) [FOXB1-001] | > 75 |
| QYLQQQAKL (also called QYLQQQAKL) [FOXB1-002] | > 75 |
| AYLQFLSVL (also called AYLQFLSVL) [GREB-002] | > 75 |
| YYIGIVEEYW (also called YYIGIVEEYW) [HEPHL-008] | > 75 |
| LYAPTILLW (also called LYAPTILLW) [AFP-001] | > 75 |
| RYFIAAEKILW (also called RYFIAAEKILW) [HEPHL-005] | > 75 |
| FYNRLTKLF (also called FYNRLTKLF) [OFCC-001] | > 75 |
| MLPEASLLI (also called MLPEASLLI) [NLRP4-005] | > 75 |
| ISWEVVHTVF (also called ISWEVVHTVF) [HMCN1-008] | > 75 |
| QRYGFSSVGF (also called QRYGFSSVGF) [RHBG-001] | > 75 |
| IYLLLPPVI (also called IYLLLPPVI) [OR51E2-004] | > 75 |

| Binder | peptide exchange yield [%] |
| --- | --- |
| IYNEHGIQQI (also called IYNEHGIQQI) [COL11A1-003] | > 75 |
| HYHAESFLF (also called HYHAESFLF) [HEPHL-003] | > 75 |
| LYYGSILYI (also called LYYGSILYI) [OR9-001] | > 75 |
| LYPDSVFGRLF (also called LYPDSVFGRLF) [SMC1B-003] | > 75 |
| IWPGFTTSI (also called IWPGFTTSI) [PIWIL1-003] | > 75 |
| PYSIYPHGVTF (also called PYSIYPHGVTF) [F5-006] | > 75 |
| VYSNPDLFW (also called VYSNPDLFW) [TRDV3-002] | > 75 |
| IYSSQLPSF (also called IYSSQLPSF) [TFEC-004] | > 75 |
| MYTIVTPML (also called MYTIVTPML) [OR1N1-001] | > 75 |
| LYMSVEDFI (also called LYMSVEDFI) [STK31-001] | > 75 |
| LSSPVHLDF (also called LSSPVHLDF) [FCRL5-007] | > 75 |
| FFLQESPVF (also called FFLQESPVF) [ABCC11-004] | > 75 |
| FYFYNCSSL (also called FYFYNCSSL) [ERV-001] | > 75 |
| TYIDTRTVFL (also called TYIDTRTVFL) [CAPN6-005] | > 75 |
| KYLITTFSL (also called KYLITTFSL) [NLRP2-008] | > 75 |
| KFLGSKCSF (also called KFLGSKCSF) [HAS3-003] | > 75 |
| SYTPLLSYI (also called SYTPLLSYI) [C1orf94-002] | > 75 |
| VYLDEKQHAW (also called VYLDEKQHAW) [TCL1A-005] | > 75 |
| RWLSKPSLL (also called RWLSKPSLL) [KBTBD8-004] | > 75 |
| IYTFSNVTF (also called IYTFSNVTF) [BTN1-003] | > 75 |
| AFQNVISSF (also called AFQNVISSF) [NMUR2-003] | > 75 |
